Reference: patent publication US20210061907A1
Where a chain is given by its changes, count along the chain named.

B1: 2F1 affinity-matured antibody fragment, kappa light chain fusion protein (scFv, V domains shown)
VH: EVQLLESGGGLVQPGGSLRLSCAASGFTFSDYYMSWVRQAPGKGLEWVSGIYYDGSSQGWSSSVKGRFTISRDNSKNTLYLQMNSLRAEDTAVYYCAKGPLFCNDRTCSYYYAMDVWGQGTLVTVSS
VL: QSVLTQPPSASGTPGQRVTISCYGQPSNIGSNAVYWYQQLPGTAPKLLIYDDNHRPSGVPDRFSGSKSGTSASLAISGLRSEDEADYYCGTWDYSLSGYVLGGGTKLTVL
B2: E3 affinity-matured antibody fragment, kappa light chain fusion protein (scFv, V domains shown)
VH: B1 VH with S56T, S57A, Q58M, G59Y, W60Y, S61A, S62D
VL: B1 VL with Y23S, Q25G, P26Y
B3: C2 affinity-matured antibody fragment, kappa light chain fusion protein (scFv, V domains shown)
VH: B1 VH with S56T, S57N, G59Y, W60Y, S61A, S62D
VL: B1 VL with Y23T, Q25G, P26L
B4: H10 affinity-matured antibody fragment, kappa light chain fusion protein (scFv, V domains shown)
VH: B1 VH with S56T, S57N, Q58V, G59Y, W60Y, S61A, S62D
VL: B1 VL with Y23L, Q25G, P26Y
B5: D10 affinity-matured antibody fragment, kappa light chain fusion protein (scFv, V domains shown)
VH: B1 VH with S57A, Q58V, G59Y, W60Y, S61A, S62D
VL: B1 VL with Y23W, Q25D, P26Y
B6: D7 affinity-matured antibody fragment, kappa light chain fusion protein (scFv, V domains shown)
VH: B1 VH with S56T, S57A, Q58F, G59Y, W60Y, S61A, S62D
VL: B1 VL with Y23E
B7: T3C1 affinity-matured antibody fragment, kappa light chain fusion protein (scFv, V domains shown)
VH: B1 VH with S57A, Q58S, G59Y, W60Y, S61A, S62D
VL: B1 VL with Y23S, Q25G
B8: E12 affinity-matured antibody fragment, kappa light chain fusion protein (scFv, V domains shown)
VH: B1 VH with G55S, S56F, S57V, Q58P, G59Y, W60Y, S61A, S62D
VL: B1 VL with Y23A, Q25S, P26A
B9: T3H9 affinity-matured antibody fragment, kappa light chain fusion protein (scFv, V domains shown)
VH: B1 VH with G55A, S57A, Q58E, G59Y, W60Y, S61A, S62D
VL: B1 VL with Y23S, Q25M, P26L

Target: CD19 on the CD19-positive RaJi cell line (UniProt P15391)
Test: flow cytometry on the CD19-positive RaJi cell line, dose series, anti-human IgG-FITC, GraphPad Prism

EC50 [nM] | Binder
10.5 | B1
26.1 | B2
61.2 | B3

Target: CD19-ECD Fc fusion protein (human) (UniProt P15391)
Test: ELISA, plates coated with CD19-ECD Fc, dose series of purified kappa fusion antibody fragment, OD450, GraphPad Prism

EC50 [nM] | Binder
3.31 | B4
1.6 | B1
2.48 | B5
3.2 | B6
2.4 | B7
1.87 | B2
2.56 | B8
5.81 | B3
2.32 | B9
